The target in data set [1] is calf intestinal alkaline phosphatase (CIAP) (calf) (UniProt P19111). Kind of data set: 32P-RNA binding assay. The settings on record: RNA 5 nM, triplicate; Selection buffer 20 mM HEPES pH 7.5, 150 mM NaCl, 5 mM MgCl2, room temperature; binding assay conditions not separately stated (refers to cited protocol).
In data set [2] the target is T1, calf intestinal alkaline phosphatase (CIAP) (calf, UniProt P19111 20-506). Nature of the data set: 32P-RNA binding assay; RNA 5 nM, triplicate; Selection buffer 20 mM HEPES pH 7.5, 150 mM NaCl, 5 mM MgCl2, room temperature; binding assay conditions not separately stated (refers to cited protocol). The settings on record: protein: commercial, tags: biotinylated (Pierce 29339, 69 kDa), chain copies: 2, label: 32P.

The target of data set [3] is human intestinal alkaline phosphatase (human, UniProt P09923 20-503). Nature of the data set: 32P-RNA binding assay; up to 250 nM protein, single point; Selection buffer 20 mM HEPES pH 7.5, 150 mM NaCl, 5 mM MgCl2, room temperature; binding assay conditions not separately stated (refers to cited protocol). The settings on record: protein: recombinant; chain copies: 2; label: 32P; stem-loop, GGG/CCC closing stem.

Data set [4] concerns the target T2, human tissue-nonspecific alkaline phosphatase (human, UniProt P05186 18-501).
T2 sequence: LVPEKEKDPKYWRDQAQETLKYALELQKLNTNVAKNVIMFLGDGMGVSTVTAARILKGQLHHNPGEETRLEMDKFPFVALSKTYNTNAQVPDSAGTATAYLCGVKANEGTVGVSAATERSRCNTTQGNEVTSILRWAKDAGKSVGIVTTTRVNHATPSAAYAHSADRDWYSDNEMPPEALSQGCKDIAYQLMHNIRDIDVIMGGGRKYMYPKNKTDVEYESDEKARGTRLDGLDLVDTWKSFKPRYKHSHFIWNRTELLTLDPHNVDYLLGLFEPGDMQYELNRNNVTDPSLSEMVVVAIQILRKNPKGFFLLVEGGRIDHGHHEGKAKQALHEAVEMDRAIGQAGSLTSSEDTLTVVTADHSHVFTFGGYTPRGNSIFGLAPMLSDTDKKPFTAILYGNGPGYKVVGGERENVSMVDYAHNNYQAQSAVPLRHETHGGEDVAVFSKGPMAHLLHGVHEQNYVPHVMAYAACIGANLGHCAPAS
The data set is described as above. The settings on record: protein: recombinant; chain copies: 2; label: 32P; stem-loop, GGG/CCC closing stem.

For data set [5], the target named is T1, calf intestinal alkaline phosphatase …. Nature of the data set: 32P-RNA binding assay; Selection buffer 20 mM HEPES pH 7.5, 150 mM NaCl, 5 mM MgCl2, room temperature; binding assay conditions not separately stated (refers to cited protocol). To be noted: protein: commercial; tags: biotinylated (Pierce 29339, 69 kDa); chain copies: 2; label: 32P; stem-loop, GGG/CCC closing stem.

Data set [6] has the same target. Kind of data set: 32P-RNA bead binding assay; not above no-protein beads; Selection buffer 20 mM HEPES pH 7.5, 150 mM NaCl, 5 mM MgCl2, room temperature; binding assay conditions not separately stated (refers to cited protocol). To be noted: protein: commercial; tags: biotinylated (Pierce 29339, 69 kDa); chain copies: 2; label: 32P.
For data set [7] the target is unchanged. Kind of data set: 32P-RNA bead binding assay; not above no-protein beads; prefers naked beads; Selection buffer 20 mM HEPES pH 7.5, 150 mM NaCl, 5 mM MgCl2, room temperature; binding assay conditions not separately stated (refers to cited protocol). The settings on record: protein: commercial; tags: biotinylated (Pierce 29339, 69 kDa); chain copies: 2; label: 32P.

Data on 6 molecules can be found in paper PMC6696043, “Aptamers in Education: Undergraduates Make Aptamers and Acquire 21st Century Skills Along the Way”.

The term Kd denotes the free concentration of one partner at which half of the binding sites on the other are occupied at equilibrium, for simple one-to-one binding. Higher therefore signals a looser complex.

T1 sequence (P19111 20-506): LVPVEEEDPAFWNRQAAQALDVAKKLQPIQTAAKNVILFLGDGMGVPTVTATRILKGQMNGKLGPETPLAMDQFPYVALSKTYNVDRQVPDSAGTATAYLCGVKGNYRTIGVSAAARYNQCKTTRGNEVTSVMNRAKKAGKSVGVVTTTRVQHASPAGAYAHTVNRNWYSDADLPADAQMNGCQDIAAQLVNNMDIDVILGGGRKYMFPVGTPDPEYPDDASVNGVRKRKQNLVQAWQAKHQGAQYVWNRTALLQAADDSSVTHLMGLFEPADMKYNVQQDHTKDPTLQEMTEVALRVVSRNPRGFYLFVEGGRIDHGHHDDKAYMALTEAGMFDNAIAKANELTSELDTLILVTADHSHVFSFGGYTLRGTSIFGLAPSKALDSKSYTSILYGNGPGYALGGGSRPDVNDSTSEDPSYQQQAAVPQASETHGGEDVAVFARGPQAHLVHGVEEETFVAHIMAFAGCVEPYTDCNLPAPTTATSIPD
Chain of calf intestinal alkaline phosphatase (CIAP) (calf) (P19111 20-506): as above
Chain of human intestinal alkaline phosphatase (P09923 20-503): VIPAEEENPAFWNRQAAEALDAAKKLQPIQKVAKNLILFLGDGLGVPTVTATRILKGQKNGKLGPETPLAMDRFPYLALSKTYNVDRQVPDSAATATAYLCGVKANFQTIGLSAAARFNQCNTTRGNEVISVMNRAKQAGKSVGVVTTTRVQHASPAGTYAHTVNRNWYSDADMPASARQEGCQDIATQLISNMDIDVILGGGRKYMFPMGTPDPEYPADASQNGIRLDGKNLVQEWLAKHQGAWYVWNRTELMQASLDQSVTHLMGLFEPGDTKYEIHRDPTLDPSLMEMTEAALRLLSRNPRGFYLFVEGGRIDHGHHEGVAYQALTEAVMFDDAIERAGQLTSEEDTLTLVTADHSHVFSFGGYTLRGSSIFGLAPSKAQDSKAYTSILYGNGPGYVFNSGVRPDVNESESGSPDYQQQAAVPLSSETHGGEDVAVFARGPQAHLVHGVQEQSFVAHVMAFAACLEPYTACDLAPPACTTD

For “GGGUUUACCUAGGUGUAGAUGCUUCWAUUGAUAUGUUAUAACUGAACUCAACAUAAGGAUAUGAUGUAUGAUCAAGUGACGUCUGAACUGCUUCGAA [aptamer clone 4-9]”, the Kd in data set [1] turned out to be 9.4 nM.

B1: aptamer clone 3-6 (structured_RNA)
RNA: GGGUUUACCUAGGUGUAGAUGCUCUGCCCUUCAGAUUUAUCGAUGACCGUUGAACUCAACAUAAGACCUUCCAAAGUGACGUCUGAACUGCUUCGAA
For B1, the Kd in data set [2] (VDH motif in loop and stem) worked out at 10.8 nM.

B2: aptamer clone 4-3 (structured_RNA)
RNA: GGGUUUACCUAGGUGUAGAUGCUGUAUAUAGCGAACUCAACAUAAGGUAUAAUUACAAUUUCUAUACUUCUUCAAGUGACGUCUGAACUGCUUCGAA
With B2, in data set [2] (VDH motif in loop), binding was put at a Kd of 5 nM.

B3: minimized aptamer variant 3.1 (structured_RNA)
RNA: GGGUAGAUGCUGUAUAUAGCGAACUCAACAUAAGGUAUAAUUACAAUUUCUACCC
Consider B3, for which the binding result in data set [3] and in data set [4] was “no binding” each time. In addition, the affinity in data set [5], expressed as Kd, was 6.7 nM.

B4: clone c2-4 (structured_RNA)
RNA: GGGUUUACCUAGGUGUAGAUGCUUCUUCACUCCUUAUGAACACGUAGCGCUCAAUCAUCUCUAAUUAAUUCUCAAGUGACGUCUGAACUGCUUCGAA
B4: the binding result in data set [6] is reported as “no binding”.

B5: clone c2-1 (structured_RNA)
RNA: GGGUUUACCUAGGUGUAGAUGCUGAUAGAUUUCCCCUGACUUAGGAGCUCAUUAGAUUUUUAUUGUGUGGGGCAAGUGACGUCUGAACUGCUUCGAA
For the molecule B5, in data set [7], the binding result is recorded as “no binding”.
